Results taken from paper PMC9525694.

Molecular target: T1, Bak (human (endogenous in HeLa)), Q16611
T1 chain: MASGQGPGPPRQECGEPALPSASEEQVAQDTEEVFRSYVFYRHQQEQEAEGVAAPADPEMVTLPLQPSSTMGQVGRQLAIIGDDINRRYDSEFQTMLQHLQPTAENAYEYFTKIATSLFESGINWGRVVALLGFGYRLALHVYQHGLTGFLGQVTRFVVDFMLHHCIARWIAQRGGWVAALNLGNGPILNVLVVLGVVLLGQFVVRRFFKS
Test: native gel or EMSA; BN-PAGE (6-16.5% gradient, 4 °C) of mitochondria from uninfected HeLa cells incubated with recombinant tBid for 30 min, lysed in 1% digitonin; Western blot for Bak
Conditions: remark: other sources report otherwise

B1: Bak, Q16611 1-211 (natural protein)
chain: T1 chain
stoichiometry N: 2
